{"source": "patent US20140087995A1", "about": "(published 2014)", "note": "Numbered stars: 1 amine (or outer) side, 2 acyl side, 3 side chain; on linkers, the order of the positions; unused ones are H or OH. Bridge positions count the residues as written; N and C are the ends. Side chains are listed from the residue outwards. Ends that are not written are not given here. * marks the point of attachment. C20 diacid = O=C(O)CCCCCCCCCCCCCCCCCCC(=O)*; γGlu = O=C(O)[C@H](CCC(=O)[*:2])N[*:1]; AEEA = NCCOCCOCC(=O)O"}
{"target": "T1, human amylin 3(a) receptor (human calcitonin receptor co-expressed with RAMP-3) (human, UniProt P30988 25-474; O60896 24-148, limits assumed)", "T1 sequence (looked up) 1": "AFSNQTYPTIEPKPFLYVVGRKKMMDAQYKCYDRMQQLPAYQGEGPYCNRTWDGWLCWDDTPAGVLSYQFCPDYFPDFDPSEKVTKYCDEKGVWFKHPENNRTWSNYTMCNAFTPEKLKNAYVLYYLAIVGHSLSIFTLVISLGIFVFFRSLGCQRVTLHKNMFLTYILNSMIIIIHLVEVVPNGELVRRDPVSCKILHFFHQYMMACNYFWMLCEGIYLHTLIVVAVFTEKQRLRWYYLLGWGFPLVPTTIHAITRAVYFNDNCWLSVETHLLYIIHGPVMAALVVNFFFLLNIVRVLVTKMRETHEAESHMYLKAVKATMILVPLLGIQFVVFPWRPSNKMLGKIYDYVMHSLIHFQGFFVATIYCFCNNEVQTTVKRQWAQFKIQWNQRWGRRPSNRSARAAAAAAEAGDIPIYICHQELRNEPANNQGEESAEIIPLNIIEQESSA", "T1 sequence (looked up) 2": "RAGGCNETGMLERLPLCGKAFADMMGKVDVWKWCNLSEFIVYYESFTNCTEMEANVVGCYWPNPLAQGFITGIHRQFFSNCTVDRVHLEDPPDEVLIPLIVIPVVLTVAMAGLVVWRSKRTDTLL", "assay": "cell-based or functional assay", "units": {"hAmylin-R funct. EC50 (pM)": "pM"}}
{"binder": "K([AEEA-AEEA-γGlu-C20 diacid])CNTATCATQRLANFLRHSSPNFGAIPSSTNVGSETY-NH2 (disulfide 2-7; N-terminus assumed; SMILES CC[C@H](C)[C@H](NC(=O)[C@H](C)NC(=O)CNC(=O)[C@H](Cc1ccccc1)NC(=O)[C@H](CC(N)=O)NC(=O)[C@@H]1CCCN1C(=O)[C@H](CO)NC(=O)[C@H](CO)NC(=O)[C@H](Cc1c[nH]cn1)NC(=O)[C@H](CCCNC(=N)N)NC(=O)[C@H](CC(C)C)NC(=O)[C@H](Cc1ccccc1)NC(=O)[C@H](CC(N)=O)NC(=O)[C@H](C)NC(=O)[C@H](CC(C)C)NC(=O)[C@H](CCCNC(=N)N)NC(=O)[C@H](CCC(N)=O)NC(=O)[C@@H](NC(=O)[C@H](C)NC(=O)[C@@H]1CSSC[C@H](NC(=O)[C@@H](N)CCCCNC(=O)COCCOCCNC(=O)COCCOCCNC(=O)CC[C@H](NC(=O)CCCCCCCCCCCCCCCCCCC(=O)O)C(=O)O)C(=O)N[C@@H](CC(N)=O)C(=O)N[C@@H]([C@@H](C)O)C(=O)N[C@@H](C)C(=O)N[C@@H]([C@@H](C)O)C(=O)N1)[C@@H](C)O)C(=O)N1CCC[C@H]1C(=O)N[C@@H](CO)C(=O)N[C@@H](CO)C(=O)N[C@H](C(=O)N[C@@H](CC(N)=O)C(=O)N[C@H](C(=O)NCC(=O)N[C@@H](CO)C(=O)N[C@@H](CCC(=O)O)C(=O)N[C@H](C(=O)N[C@@H](Cc1ccc(O)cc1)C(N)=O)[C@@H](C)O)C(C)C)[C@@H](C)O, also called compound 25)", "Ratio hCT/hAmylin funct. (hCTR EC50 over hAmylin-R EC50)": 46.2, "hAmylin-R funct. EC50 (pM)": 217}
{"binder": "K([AEEA-γGlu-C20 diacid])CNTATCATQRLARFLRHSSPNFGAIPSSTPVGSNTY-NH2 (disulfide 2-7; N-terminus assumed; SMILES CC[C@H](C)[C@H](NC(=O)[C@H](C)NC(=O)CNC(=O)[C@H](Cc1ccccc1)NC(=O)[C@H](CC(N)=O)NC(=O)[C@@H]1CCCN1C(=O)[C@H](CO)NC(=O)[C@H](CO)NC(=O)[C@H](Cc1c[nH]cn1)NC(=O)[C@H](CCCNC(=N)N)NC(=O)[C@H](CC(C)C)NC(=O)[C@H](Cc1ccccc1)NC(=O)[C@H](CCCNC(=N)N)NC(=O)[C@H](C)NC(=O)[C@H](CC(C)C)NC(=O)[C@H](CCCNC(=N)N)NC(=O)[C@H](CCC(N)=O)NC(=O)[C@@H](NC(=O)[C@H](C)NC(=O)[C@@H]1CSSC[C@H](NC(=O)[C@@H](N)CCCCNC(=O)COCCOCCNC(=O)CC[C@H](NC(=O)CCCCCCCCCCCCCCCCCCC(=O)O)C(=O)O)C(=O)N[C@@H](CC(N)=O)C(=O)N[C@@H]([C@@H](C)O)C(=O)N[C@@H](C)C(=O)N[C@@H]([C@@H](C)O)C(=O)N1)[C@@H](C)O)C(=O)N1CCC[C@H]1C(=O)N[C@@H](CO)C(=O)N[C@@H](CO)C(=O)N[C@H](C(=O)N1CCC[C@H]1C(=O)N[C@H](C(=O)NCC(=O)N[C@@H](CO)C(=O)N[C@@H](CC(N)=O)C(=O)N[C@H](C(=O)N[C@@H](Cc1ccc(O)cc1)C(N)=O)[C@@H](C)O)C(C)C)[C@@H](C)O, also called compound 64)", "Ratio hCT/hAmylin funct. (hCTR EC50 over hAmylin-R EC50)": 60.7, "hAmylin-R funct. EC50 (pM)": 378}
{"binder": "K([AEEA-γGlu-C20 diacid])CNTATCATQRLAAFLRHSSPNFGAIPSSTPVGSNTY-NH2 (disulfide 2-7; N-terminus assumed; SMILES CC[C@H](C)[C@H](NC(=O)[C@H](C)NC(=O)CNC(=O)[C@H](Cc1ccccc1)NC(=O)[C@H](CC(N)=O)NC(=O)[C@@H]1CCCN1C(=O)[C@H](CO)NC(=O)[C@H](CO)NC(=O)[C@H](Cc1c[nH]cn1)NC(=O)[C@H](CCCNC(=N)N)NC(=O)[C@H](CC(C)C)NC(=O)[C@H](Cc1ccccc1)NC(=O)[C@H](C)NC(=O)[C@H](C)NC(=O)[C@H](CC(C)C)NC(=O)[C@H](CCCNC(=N)N)NC(=O)[C@H](CCC(N)=O)NC(=O)[C@@H](NC(=O)[C@H](C)NC(=O)[C@@H]1CSSC[C@H](NC(=O)[C@@H](N)CCCCNC(=O)COCCOCCNC(=O)CC[C@H](NC(=O)CCCCCCCCCCCCCCCCCCC(=O)O)C(=O)O)C(=O)N[C@@H](CC(N)=O)C(=O)N[C@@H]([C@@H](C)O)C(=O)N[C@@H](C)C(=O)N[C@@H]([C@@H](C)O)C(=O)N1)[C@@H](C)O)C(=O)N1CCC[C@H]1C(=O)N[C@@H](CO)C(=O)N[C@@H](CO)C(=O)N[C@H](C(=O)N1CCC[C@H]1C(=O)N[C@H](C(=O)NCC(=O)N[C@@H](CO)C(=O)N[C@@H](CC(N)=O)C(=O)N[C@H](C(=O)N[C@@H](Cc1ccc(O)cc1)C(N)=O)[C@@H](C)O)C(C)C)[C@@H](C)O, also called compound 72)", "Ratio hCT/hAmylin funct. (hCTR EC50 over hAmylin-R EC50)": 44.9, "hAmylin-R funct. EC50 (pM)": 106}
{"binder": "K([AEEA-γGlu-C20 diacid])CNTATCATQRLANFLRHSSPNFGAIPSSTNVGSETY-NH2 (disulfide 2-7; N-terminus assumed; SMILES CC[C@H](C)[C@H](NC(=O)[C@H](C)NC(=O)CNC(=O)[C@H](Cc1ccccc1)NC(=O)[C@H](CC(N)=O)NC(=O)[C@@H]1CCCN1C(=O)[C@H](CO)NC(=O)[C@H](CO)NC(=O)[C@H](Cc1c[nH]cn1)NC(=O)[C@H](CCCNC(=N)N)NC(=O)[C@H](CC(C)C)NC(=O)[C@H](Cc1ccccc1)NC(=O)[C@H](CC(N)=O)NC(=O)[C@H](C)NC(=O)[C@H](CC(C)C)NC(=O)[C@H](CCCNC(=N)N)NC(=O)[C@H](CCC(N)=O)NC(=O)[C@@H](NC(=O)[C@H](C)NC(=O)[C@@H]1CSSC[C@H](NC(=O)[C@@H](N)CCCCNC(=O)COCCOCCNC(=O)CC[C@H](NC(=O)CCCCCCCCCCCCCCCCCCC(=O)O)C(=O)O)C(=O)N[C@@H](CC(N)=O)C(=O)N[C@@H]([C@@H](C)O)C(=O)N[C@@H](C)C(=O)N[C@@H]([C@@H](C)O)C(=O)N1)[C@@H](C)O)C(=O)N1CCC[C@H]1C(=O)N[C@@H](CO)C(=O)N[C@@H](CO)C(=O)N[C@H](C(=O)N[C@@H](CC(N)=O)C(=O)N[C@H](C(=O)NCC(=O)N[C@@H](CO)C(=O)N[C@@H](CCC(=O)O)C(=O)N[C@H](C(=O)N[C@@H](Cc1ccc(O)cc1)C(N)=O)[C@@H](C)O)C(C)C)[C@@H](C)O, also called compound 26)", "Ratio hCT/hAmylin funct. (hCTR EC50 over hAmylin-R EC50)": 29.9, "hAmylin-R funct. EC50 (pM)": 212}
{"binder": "K([AEEA-γGlu-C20 diacid])CNTATCATQRLARFLRHSSPNFGAIPSSTNVGSNTY-NH2 (disulfide 2-7; N-terminus assumed; SMILES CC[C@H](C)[C@H](NC(=O)[C@H](C)NC(=O)CNC(=O)[C@H](Cc1ccccc1)NC(=O)[C@H](CC(N)=O)NC(=O)[C@@H]1CCCN1C(=O)[C@H](CO)NC(=O)[C@H](CO)NC(=O)[C@H](Cc1c[nH]cn1)NC(=O)[C@H](CCCNC(=N)N)NC(=O)[C@H](CC(C)C)NC(=O)[C@H](Cc1ccccc1)NC(=O)[C@H](CCCNC(=N)N)NC(=O)[C@H](C)NC(=O)[C@H](CC(C)C)NC(=O)[C@H](CCCNC(=N)N)NC(=O)[C@H](CCC(N)=O)NC(=O)[C@@H](NC(=O)[C@H](C)NC(=O)[C@@H]1CSSC[C@H](NC(=O)[C@@H](N)CCCCNC(=O)COCCOCCNC(=O)CC[C@H](NC(=O)CCCCCCCCCCCCCCCCCCC(=O)O)C(=O)O)C(=O)N[C@@H](CC(N)=O)C(=O)N[C@@H]([C@@H](C)O)C(=O)N[C@@H](C)C(=O)N[C@@H]([C@@H](C)O)C(=O)N1)[C@@H](C)O)C(=O)N1CCC[C@H]1C(=O)N[C@@H](CO)C(=O)N[C@@H](CO)C(=O)N[C@H](C(=O)N[C@@H](CC(N)=O)C(=O)N[C@H](C(=O)NCC(=O)N[C@@H](CO)C(=O)N[C@@H](CC(N)=O)C(=O)N[C@H](C(=O)N[C@@H](Cc1ccc(O)cc1)C(N)=O)[C@@H](C)O)C(C)C)[C@@H](C)O, also called compound 82)", "Ratio hCT/hAmylin funct. (hCTR EC50 over hAmylin-R EC50)": 59.2, "hAmylin-R funct. EC50 (pM)": 215}
{"binder": "K([AEEA-γGlu-C20 diacid])CNTATCATQRLANFLRHSSPNFGAIPSSTNVGRNTY-NH2 (disulfide 2-7; N-terminus assumed; SMILES CC[C@H](C)[C@H](NC(=O)[C@H](C)NC(=O)CNC(=O)[C@H](Cc1ccccc1)NC(=O)[C@H](CC(N)=O)NC(=O)[C@@H]1CCCN1C(=O)[C@H](CO)NC(=O)[C@H](CO)NC(=O)[C@H](Cc1c[nH]cn1)NC(=O)[C@H](CCCNC(=N)N)NC(=O)[C@H](CC(C)C)NC(=O)[C@H](Cc1ccccc1)NC(=O)[C@H](CC(N)=O)NC(=O)[C@H](C)NC(=O)[C@H](CC(C)C)NC(=O)[C@H](CCCNC(=N)N)NC(=O)[C@H](CCC(N)=O)NC(=O)[C@@H](NC(=O)[C@H](C)NC(=O)[C@@H]1CSSC[C@H](NC(=O)[C@@H](N)CCCCNC(=O)COCCOCCNC(=O)CC[C@H](NC(=O)CCCCCCCCCCCCCCCCCCC(=O)O)C(=O)O)C(=O)N[C@@H](CC(N)=O)C(=O)N[C@@H]([C@@H](C)O)C(=O)N[C@@H](C)C(=O)N[C@@H]([C@@H](C)O)C(=O)N1)[C@@H](C)O)C(=O)N1CCC[C@H]1C(=O)N[C@@H](CO)C(=O)N[C@@H](CO)C(=O)N[C@H](C(=O)N[C@@H](CC(N)=O)C(=O)N[C@H](C(=O)NCC(=O)N[C@@H](CCCNC(=N)N)C(=O)N[C@@H](CC(N)=O)C(=O)N[C@H](C(=O)N[C@@H](Cc1ccc(O)cc1)C(N)=O)[C@@H](C)O)C(C)C)[C@@H](C)O, also called compound 78)", "Ratio hCT/hAmylin funct. (hCTR EC50 over hAmylin-R EC50)": 25.8, "hAmylin-R funct. EC50 (pM)": 316}
